Measured values: patent US20180368743, “GRAPHENE-BASED NANOSENSOR FOR IDENTIFYING TARGET ANALYTES” (THE TRUSTEES OF COLUMBIA UNIVERSITY IN THE CITY OF NEW NEW …, published 2018)

Columns and labels:
Settings in all cases: G4
Somatostatin = target: T1, Somatostatin (Homo sapiens, UniProt P61278 P61278:103-116); assay: graphene FET current change <1.3% at up to 1 uM vs 8.5% for insulin; normalized response <0.192
T1 chain: AGCKNFFWKTFTSC
Protocol: (§1) To examine the specificity of the nanosensor to insulin over other related analogues that might interfere with the detection of insulin, glucagon and somatostatin, which were secreted by the pancreatic islet alpha and delta cells, respectively, were evaluated as negative control analytes. This is because glucagon [molecular weight (MW): 3.5 kD, PI: 6.2], promoting […] by the liver and together with somatostatin (MW: 1.63 kD, PI: 5.6) regulating the secretion of insulin, share similar physical properties with insulin, which can affect the sensing performance. The functionalized graphene nanosensor was first exposed to somatostatin solutions prior to the introduction of insulin. The change in Ids, denoted as ΔIds, was recorded throughout the experiment and compared as the response of the aptameric nanosensor to the given solutions. To minimize errors caused by device-to-device nonuniformity, the time-resolved selective response as the ratio of ΔIds to ΔIds,max (the maximum value of ΔIds) was calculated:
where Ids,PBS is the Ids measured in fresh PBS buffer. […] On the contrary, the calculated ΔIds/ΔIds,max value increased and reached 1.0 at […] insulin with stepwise increments in the insulin concentration (FIG. 101A).
Additionally, a similar real-time monitoring control experiment was conducted with glucagon (FIG. 107). […]

Insulin = Insulin (Homo sapiens, UniProt P01308;P01308 P01308:25-54,P01308:90-110); assay: graphene FET, PBS pH 7.4, Hill-Langmuir fit of Dirac voltage shift
Chain of Insulin (P01308 25-54, chain 1 of 2): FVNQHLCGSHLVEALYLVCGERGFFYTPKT
Chain of Insulin (P01308 90-110, chain 2 of 2): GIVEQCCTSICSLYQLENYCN
Protocol: The nanosensor insulin measuring capabilities were subsequently tested in PBS buffer. Insulin solutions of increasing concentrations from 100 pM to […] were sequentially introduced to the PDMS chamber of the nanosensor. The binding of insulin to the IGA3 aptamer was allowed to reach equilibrium before the replenishment of sample solutions.
The binding of insulin and aptamer was allowed to reach equilibrium for 10 min before the replenishment of higher concentration insulin solution. Thus, the dipping time of graphene in solutions was increased with the ongoing experiment. The slight decrease in the minimum of Ids (Ids,min,) in the transfer characteristic curve, observed in FIG. 99A was considered as a result of the increase in the ionic strength caused by the evaporation of PBS buffer (150 mM NaCl) with increasing dipping time.
Further, the equilibrium dissociation constant (KD) for the IGA3 aptamer and insulin with different VDirac at corresponding insulin concentrations was evaluated using the aptamer-functionalized GFETs. […] The change in VDirac, denoted as ΔVDirac, is plotted as a function of insulin concentrations with error bars obtained from three different devices (FIG. 99B).

Glucagon = Glucagon (Homo sapiens, UniProt P01275 P01275:53-81); assay: graphene FET current change <1.3% at up to 1 uM vs 8.5% for insulin
Chain of Glucagon (P01275 53-81, one chain of several): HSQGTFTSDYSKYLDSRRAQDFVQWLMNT
Protocol: as §1
Additionally, a similar real-time monitoring control experiment was conducted with glucagon (FIG. 107). […] Here, ΔIds,S(C)=Ids,S(C)−Ids,PBS, where Ids,S(C) is the Ids measured at the binding equilibrium for given solutions (insulin/glucagon/somatostatin) at representative tested concentrations.

Which results are given for GGTGGTGGGGGGGGTTGGTAGGGTGTCTTC (ssDNA, 5'-NH2 (coupled to PASE on graphene)) [IGA3 insulin aptamer]?
binding result (Somatostatin): no binding; Kd (Insulin): 35 nM; binding result (Glucagon): no binding
